From PMC2760644

Molecular target: F-actin (chicken) (UniProt P68139)
Assay: co-sedimentation

Kd: 88 µM
Substance: supervillin headpiece L38K point mutant (domain or fragment)
